Measurements from the supplement of paper PMC6757056.
± gives the standard deviation of the averaged measurements.

B1: library; a variant is named by its letters at N, in order (parent)
chain: GCUGUCACCGGAAUACCAGCAUCGUCUUGAUGCCCUUGGAAGUCCGGUCUGAUGAGUCCNNNNNGGACGAAACAGC

Legend:
[1] = variants of: B1; assay: FACS-Seq fitted mean relative fluorescence mCherry/BFP without ligand (log10 relative fluorescence); higher = higher reporter protein expression; conditions: HEK293T, ligand present: no
How it was run: (§1)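 Fluorescence values are fitted normal means of bin counts along the mCherry/BFP axis. HEK293T libraries lentivirally carrying the ribozyme switch in an mCherry reporter, with an EF1α-BFP marker, were enriched, exposed to ligand or not for 48 h, and sorted into 6 bins. Genomic DNA per bin was PCR-amplified, barcoded and run on MiSeq. Means of log10(mCherry/BFP) were scaled to five spiked-in control ribozymes.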

[2] = variants of: B1; assay: normalized RNA/DNA level with ligand (relative to sTRSVctl = 100) (log10 (% of sTRSVctl)); higher = less ribozyme self-cleavage, higher mRNA level; conditions: ligand concentration (+) RNA-Seq: 5 mM, HEK293T, reporter: mCherry (pCS4076), ligand present: yes
How it was run: (§2)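 Library plasmids carrying ribozyme switches linked to mCherry, or to eGFP in some ligand experiments, were transfected into HEK293T at 4 µg per 6-well well, with any ligand added 1 h earlier. Seventy-two hours on, total RNA was extracted with EDTA and reverse-transcribed, amplified, barcoded and sequenced. RNA level was RNA over DNA reads normalized to a spiked-in non-cleaving sequence or to the top sequences, then scaled and log-transformed. The top set was 25 sequences, the transform was ×100 and log10, and sequences needed ≥100 DNA reads.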

[3] = variants of: B1; assay: normalized RNA/DNA level without ligand (relative to sTRSVctl = 100) (log10 (% of sTRSVctl)); higher = less ribozyme self-cleavage, higher mRNA level; conditions: HEK293T, reporter: mCherry (pCS4076), ligand present: no
How it was run: as §2

[4] = variants of: B1; assay: FACS-Seq fitted mean relative fluorescence mCherry/BFP with ligand (log10 relative fluorescence); ligand concentration (+) FACS-Seq: 1 mM; higher = higher reporter protein expression; conditions: HEK293T, ligand present: yes
How it was run: as §1

Variant | FACS-Seq fitted mean (log10) [1] | normalized RNA/DNA level with ligand (log10) [2] | normalized RNA/DNA level without ligand (log10) [3] | FACS-Seq fitted mean (log10) [4]
GCUGUCACCGGAAUACCAGCAUCGUCUUGAUGCCCUUGGAAGUCCGGUCUGAUGAGUCCUCUGCGGACGAAACAGC [UCUGC] | 0.365 ± 0.16 | 1.98 ± 0.096 | 2.02 ± 0.032 | 0.642 ± 0.034
GCUGUCACCGGAAUACCAGCAUCGUCUUGAUGCCCUUGGAAGUCCGGUCUGAUGAGUCCACAAGGGACGAAACAGC [ACAAG] | 0.857 ± 0.14 | 1.99 ± 0.033 | 1.81 ± 0.12 | 0.8889 ± 0.0072
GCUGUCACCGGAAUACCAGCAUCGUCUUGAUGCCCUUGGAAGUCCGGUCUGAUGAGUCCUACGAGGACGAAACAGC [UACGA] | 0.287 ± 0.021 | 2.07 ± 0.025 | 1.72 ± 0.097 | 0.324 ± 0.024
GCUGUCACCGGAAUACCAGCAUCGUCUUGAUGCCCUUGGAAGUCCGGUCUGAUGAGUCCAGAGCGGACGAAACAGC [AGAGC] | 0.629 ± 0.05 | 1.89 ± 0.12 | 1.81 ± 0.027 | 0.813 ± 0.051
GCUGUCACCGGAAUACCAGCAUCGUCUUGAUGCCCUUGGAAGUCCGGUCUGAUGAGUCCUAAGCGGACGAAACAGC [UAAGC] | 1.08 ± 0.011 | 1.94 ± 0.059 | 1.92 ± 0.1 | 1.04 ± 0.073
GCUGUCACCGGAAUACCAGCAUCGUCUUGAUGCCCUUGGAAGUCCGGUCUGAUGAGUCCUUGCCGGACGAAACAGC [UUGCC] | 0.794 ± 0.064 | 1.99 ± 0.067 | 1.95 ± 0.021 | 0.78 ± 0.06
GCUGUCACCGGAAUACCAGCAUCGUCUUGAUGCCCUUGGAAGUCCGGUCUGAUGAGUCCUGUCUGGACGAAACAGC [UGUCU] | 0.747 ± 0.19 | 2.02 ± 0.035 | 1.988 ± 0.0094 | 0.783 ± 0.043
GCUGUCACCGGAAUACCAGCAUCGUCUUGAUGCCCUUGGAAGUCCGGUCUGAUGAGUCCACCGCGGACGAAACAGC [ACCGC] | 1.12 ± 0.047 | 2.06 ± 0.056 | 1.99 ± 0.03 | 1.1 ± 0.027
GCUGUCACCGGAAUACCAGCAUCGUCUUGAUGCCCUUGGAAGUCCGGUCUGAUGAGUCCUUUCCGGACGAAACAGC [UUUCC] | 1.01 ± 0.062 | 1.99 ± 0.028 | 1.97 ± 0.04 | 0.9258 ± 0.0036
